Data published in the supplement of paper PMC9112550, “Optimization of the antimicrobial peptide Bac7 by deep mutational scanning” (BMC Biology, 2022).

Each sequence was assayed on Escherichia coli TOP10 (assay: shrunken log2 fold change of peptide-encoding DNA abundance (4.5 h post-induction vs induction); higher = less antimicrobial activity (less host growth inhibition)). Conditions: time post-induction: 4.5 h; library: site-saturation at positions 5, 18, 19, 20.
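Note: peptides expressed intracellularly from a pBAD plasmid library in pooled LB shake-flask culture, induced with 0.3% L-arabinose, DNA abundance read by NGS, three biological replicates, DESeq2 with apeglm shrinkage.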

| Sequence | shrunken log2 fold change |
| --- | --- |
| RRIRFRPPRLPRPRPRPKSYPRP | -0.201 |
| RRIRNRPPRLPRPRPRPRNYPRP | -0.123 |
| RRIRPRPPRLPRPRPRPEAAPRP | 1.13 |
| RRIRWRPPRLPRPRPRPMPYPRP | -0.0164 |
| RRIRHRPPRLPRPRPRPGFAPRP | 0.142 |
| RRIRNRPPRLPRPRPRPLEYPRP | -0.816 |
| RRIRFRPPRLPRPRPRPILIPRP | -0.194 |
| RRIRVRPPRLPRPRPRPHANPRP | 0.25 |
| RRIRKRPPRLPRPRPRPSRMPRP | 0.317 |
| RRIRWRPPRLPRPRPRPKKYPRP | -0.245 |
| RRIRDRPPRLPRPRPRPTRLPRP | 0.491 |
| RRIRPRPPRLPRPRPRPHIRPRP | -0.0938 |
| RRIRDRPPRLPRPRPRPWSSPRP | 0.0046 |
| RRIRLRPPRLPRPRPRPDWVPRP | -0.0945 |
| RRIRCRPPRLPRPRPRPVRWPRP | 0.952 |
| RRIRNRPPRLPRPRPRPIAEPRP | 0.196 |
| RRIRMRPPRLPRPRPRPHFMPRP | -0.127 |
| RRIRSRPPRLPRPRPRPCRLPRP | -0.271 |
| RRIRPRPPRLPRPRPRPGEMPRP | 0.294 |
| RRIRVRPPRLPRPRPRPNHWPRP | 0.203 |
| RRIRNRPPRLPRPRPRPNDPPRP | 0.188 |
| RRIRNRPPRLPRPRPRPMALPRP | -0.0652 |
| RRIRGRPPRLPRPRPRPCQEPRP | 0.0738 |
| RRIRDRPPRLPRPRPRPKMLPRP | 0.11 |
| RRIRPRPPRLPRPRPRPCNWPRP | -0.0706 |

| Sequence | shrunken log2 fold change |
| --- | --- |
| RRIRERPPRLPRPRPRPLTQPRP | -0.281 |
| RRIRPRPPRLPRPRPRPFHYPRP | -1.27 |
| RRIRWRPPRLPRPRPRPGLSPRP | -0.0318 |
| RRIRQRPPRLPRPRPRPRNFPRP | -0.0725 |
| RRIRTRPPRLPRPRPRPCILPRP | -0.831 |
| RRIRCRPPRLPRPRPRPAQSPRP | 0.345 |
| RRIRWRPPRLPRPRPRPVCLPRP | 0.311 |
| RRIRARPPRLPRPRPRPECPPRP | 0.683 |
| RRIRQRPPRLPRPRPRPSESPRP | -0.0923 |
| RRIRDRPPRLPRPRPRPGYCPRP | -0.658 |
| RRIRFRPPRLPRPRPRPKIIPRP | -0.592 |
| RRIRYRPPRLPRPRPRPARWPRP | 0.135 |
| RRIRKRPPRLPRPRPRPVYGPRP | -0.0742 |
| RRIRRRPPRLPRPRPRPRVLPRP | 0.349 |
| RRIRHRPPRLPRPRPRPENQPRP | -0.243 |
| RRIRFRPPRLPRPRPRPENRPRP | -0.0215 |
| RRIRIRPPRLPRPRPRPTDFPRP | -0.109 |
| RRIRWRPPRLPRPRPRPSMFPRP | -0.0441 |
| RRIRNRPPRLPRPRPRPNISPRP | -0.476 |
| RRIRSRPPRLPRPRPRPWWQPRP | -0.0257 |
| RRIRERPPRLPRPRPRPMNKPRP | -0.765 |
| RRIRMRPPRLPRPRPRPIKEPRP | -0.00194 |
| RRIRRRPPRLPRPRPRPRGMPRP | 0.907 |
| RRIRDRPPRLPRPRPRPTRWPRP | 1.38 |
| RRIRRRPPRLPRPRPRPTSSPRP | 0.04 |

| Sequence | shrunken log2 fold change |
| --- | --- |
| RRIRMRPPRLPRPRPRPYCSPRP | -0.122 |
| RRIRWRPPRLPRPRPRPPACPRP | 0.531 |
| RRIRARPPRLPRPRPRPLRIPRP | 2.9 |
| RRIRCRPPRLPRPRPRPTMHPRP | -0.112 |
| RRIRCRPPRLPRPRPRPFARPRP | 0.0264 |
| RRIRARPPRLPRPRPRPLYSPRP | -0.122 |
| RRIRLRPPRLPRPRPRPWTVPRP | -0.176 |
| RRIRERPPRLPRPRPRPPQGPRP | 0.158 |
| RRIRARPPRLPRPRPRPAKFPRP | 0.168 |
| RRIRVRPPRLPRPRPRPQHGPRP | 0.14 |
| RRIRMRPPRLPRPRPRPLPPPRP | 1.37 |
| RRIRDRPPRLPRPRPRPRTWPRP | 0.0224 |
| RRIRGRPPRLPRPRPRPSRDPRP | 0.921 |
| RRIRQRPPRLPRPRPRPEGKPRP | 0.0352 |
| RRIRARPPRLPRPRPRPSGGPRP | 0.115 |
| RRIRYRPPRLPRPRPRPTTKPRP | -0.179 |
| RRIRNRPPRLPRPRPRPTREPRP | 0.15 |
| RRIRSRPPRLPRPRPRPYYNPRP | -0.906 |
| RRIRERPPRLPRPRPRPEWMPRP | 0.171 |
| RRIRLRPPRLPRPRPRPYMSPRP | -0.0167 |
| RRIRDRPPRLPRPRPRPCIIPRP | -0.0943 |
| RRIRLRPPRLPRPRPRPQEGPRP | 0.0327 |
| RRIRFRPPRLPRPRPRPNSFPRP | -0.894 |
| RRIRKRPPRLPRPRPRPHFDPRP | 0.275 |
| RRIRCRPPRLPRPRPRPVRLPRP | 0.499 |

| Sequence | shrunken log2 fold change |
| --- | --- |
| RRIRLRPPRLPRPRPRPVHKPRP | -0.256 |
| RRIRSRPPRLPRPRPRPGQTPRP | -0.0742 |
| RRIRPRPPRLPRPRPRPSGAPRP | 0.345 |
| RRIRVRPPRLPRPRPRPQMMPRP | -0.0693 |
| RRIRYRPPRLPRPRPRPRNRPRP | -0.0543 |
| RRIRERPPRLPRPRPRPAGQPRP | -0.195 |
| RRIRCRPPRLPRPRPRPRALPRP | 0.113 |
| RRIRTRPPRLPRPRPRPPRMPRP | 0.165 |
| RRIRPRPPRLPRPRPRPFTKPRP | -0.148 |
| RRIRGRPPRLPRPRPRPDHCPRP | 0.0254 |
| RRIRNRPPRLPRPRPRPPKEPRP | -0.166 |
| RRIRERPPRLPRPRPRPAVYPRP | -0.221 |
| RRIRFRPPRLPRPRPRPGMAPRP | -0.058 |
| RRIRYRPPRLPRPRPRPELIPRP | -0.363 |
| RRIRNRPPRLPRPRPRPRKRPRP | -0.0369 |
| RRIRDRPPRLPRPRPRPKYNPRP | -0.813 |
| RRIRQRPPRLPRPRPRPNNWPRP | -0.0942 |
| RRIRSRPPRLPRPRPRPDDLPRP | 0.0166 |
| RRIRQRPPRLPRPRPRPQRFPRP | -0.0204 |
| RRIRTRPPRLPRPRPRPHISPRP | -0.0286 |
| RRIRQRPPRLPRPRPRPIHGPRP | -0.0264 |
| RRIRARPPRLPRPRPRPYYIPRP | -0.409 |
| RRIRMRPPRLPRPRPRPNQMPRP | 0.217 |
| RRIRFRPPRLPRPRPRPMVTPRP | -0.138 |
| RRIRGRPPRLPRPRPRPSGLPRP | 0.3 |

| Sequence | shrunken log2 fold change |
| --- | --- |
| RRIRQRPPRLPRPRPRPSNSPRP | -0.294 |
| RRIRIRPPRLPRPRPRPVQFPRP | -0.303 |
| RRIRPRPPRLPRPRPRPYTSPRP | -0.261 |
| RRIRIRPPRLPRPRPRPIEIPRP | -0.437 |
| RRIRNRPPRLPRPRPRPNPDPRP | -0.322 |
| RRIRCRPPRLPRPRPRPVSPPRP | 0.198 |
| RRIRCRPPRLPRPRPRPARFPRP | 0.558 |
| RRIRIRPPRLPRPRPRPTCQPRP | -0.215 |
| RRIRMRPPRLPRPRPRPSHWPRP | 0.0911 |
| RRIRPRPPRLPRPRPRPTGEPRP | 0.396 |
| RRIRVRPPRLPRPRPRPLPMPRP | 0.0885 |
| RRIRVRPPRLPRPRPRPESPPRP | 0.232 |
| RRIRARPPRLPRPRPRPHIEPRP | -0.0716 |
| RRIRERPPRLPRPRPRPNFRPRP | -0.479 |
| RRIRRRPPRLPRPRPRPADAPRP | 0.249 |
| RRIRSRPPRLPRPRPRPHEFPRP | -0.315 |
| RRIRMRPPRLPRPRPRPGCAPRP | 1.09 |
| RRIRYRPPRLPRPRPRPRILPRP | -0.276 |
| RRIRKRPPRLPRPRPRPGQGPRP | 0.205 |
| RRIRMRPPRLPRPRPRPMMHPRP | -0.0538 |
| RRIRNRPPRLPRPRPRPMFEPRP | 0.29 |
| RRIRGRPPRLPRPRPRPQTSPRP | 0.407 |
| RRIRERPPRLPRPRPRPARSPRP | 0.0919 |
| RRIRQRPPRLPRPRPRPCFWPRP | 0.14 |
| RRIRWRPPRLPRPRPRPYVHPRP | -1.18 |

| Sequence | shrunken log2 fold change |
| --- | --- |
| RRIRYRPPRLPRPRPRPNEQPRP | 0.0039 |
| RRIRLRPPRLPRPRPRPAQYPRP | -0.0702 |
| RRIRIRPPRLPRPRPRPGLCPRP | 0.108 |
| RRIRARPPRLPRPRPRPFTSPRP | 0.0705 |
| RRIRQRPPRLPRPRPRPHVYPRP | -0.414 |
| RRIRWRPPRLPRPRPRPGGDPRP | 0.556 |
| RRIRMRPPRLPRPRPRPKLAPRP | 2.87 |
| RRIRRRPPRLPRPRPRPTHMPRP | 0.577 |
| RRIRYRPPRLPRPRPRPQDTPRP | -0.547 |
| RRIRKRPPRLPRPRPRPHYHPRP | -0.145 |
| RRIRRRPPRLPRPRPRPQVEPRP | 0.0147 |
| RRIRVRPPRLPRPRPRPQEDPRP | -0.467 |
| RRIRNRPPRLPRPRPRPMPVPRP | -0.139 |
| RRIRCRPPRLPRPRPRPLVHPRP | -0.075 |
| RRIRLRPPRLPRPRPRPEWEPRP | 0.0256 |
| RRIRVRPPRLPRPRPRPRYFPRP | -0.446 |
| RRIRMRPPRLPRPRPRPSGEPRP | 0.824 |
| RRIRPRPPRLPRPRPRPEIGPRP | 0.0772 |
| RRIRSRPPRLPRPRPRPTMFPRP | -0.0103 |
| RRIRSRPPRLPRPRPRPPDLPRP | 0.543 |
| RRIRSRPPRLPRPRPRPYNPPRP | -0.953 |
| RRIRTRPPRLPRPRPRPYIFPRP | -0.947 |
| RRIRCRPPRLPRPRPRPDDHPRP | -0.338 |
| RRIRNRPPRLPRPRPRPMAYPRP | -0.161 |
| RRIRNRPPRLPRPRPRPKIKPRP | -0.256 |
